“And” between values parts separate entries of the source, which are not always exact repeats. Equal entries are not always repeated.
How the values were obtained:
[1] = Thermal shift assay via nanoDSF measurement (unfolding temperature); assay type: physicochemical; details: Prometheus NT.Plex, 3° C./min, 0.06-0.5 mg/ml
Description: The thermal shift assay was performed via nanoDSF (differential scanning fluorimetry) measurements using Prometheus NT.Plex nanoDSF (NanoTemper Technologies). The measurement was initialized using the software PR.ThermoControl. Prometheus can precisely characterize samples by measuring the thermal unfolding, chemical denaturation and aggregation within one single run (NanoTemper Technologies, 2019). By gradually heating the sample until reaching 95° C., the protein unfolds. Thereby, the chemical environment of tryptophan residues changes (change in intrinsic tryptophan fluorescence of protein due to more aqueous environment), causing a red-shift in fluorescence (tryptophan fluorescence emission shift). By plotting the fluorescence ratio 350/330 nm against the temperature, the melting temperature Tm can be determined. Calculating the first derivative of raw data gives a peak curve with its maximum indicating the unfolding temperature Tm.
For the sample preparation, a concentration of 0.5 mg/ml was adjusted for the hGCase mutants. For variant I5N and R495HS2, protein concentrations of 0.075 mg/ml (I5N) and 0.06 mg/ml (R495HS2) were applied due to low protein yields. 15 μl total sample volume was uptaken in each capillary of the capillary rack (Prometheus NT.Plex Capillary Chips, NanoTemper) and placed in the device. The excitation power was adjusted to 20-80%, depending on the applied protein concentration. The gradually heating was set to 3° C./min until reaching 95° C. (20° C. was set as starting temperature). The evaluation and calculation of the first derivative was done using the NanoTemper PR.ThermoControl software, the final evaluation and graphing was done using the PR.StabilityAnalysis software.
On the one hand, a successively increasing temperature gradient was applied to measure melting temperatures of protein molecules via nanoDSF (differential scanning fluorimetry) measurement using Prometheus NT.Plex (NanoTemper Technologies, 2019). The sample is gradually heated by increasing the temperature until reaching 95° C. Thereby, the protein unfolds and tryptophan residues experience a change in chemical environment (exposure to a more aqueous environment), which changes the intrinsic tryptophan fluorescence of the protein, causing a red shift in the fluorescent spectrum (350/330 nm=tryptophan fluorescence emission shift) (Schubert, 2015). In FIG. 1, typical melting curves of such an unfolding experiment are shown.
In the upper section of the graphs (FIGS. 1 (A) and (B)), the raw data (progression curves) measured with nanoDSF is plotted, indicating the shift in the fluorescence ratio 350/330 nm during the course of the measurement with increasing temperature. The calculation of the first derivative, giving peak curves (lower section of graphs in (A) and (B)), was done according to default settings of the Software PR.StabilityAnalysis (table 2). Peak maxima (thermal unfolding transition midpoint) indicate the unfolding temperature Tm, where half of the proteins are unfold (Schubert, 2015).

[2] = pH screening of hGCase variants (activity assay, pH 3.5-8); assay type: biochemical; details: for relative activity: pH 3.5, 20 mM citric acid buffer, highest activity = 100%; for shape of pH spectrum: pH 3.5-8
Description: For all further GCase characterization experiments including the activity assay, 20 μM substrate concentration, 30-40 min incubation time and protein concentrations ranging from 25-100 nM were set as final assay settings to ensure measurements in the linear range. The overall DMSO concentration within the assay was kept at 0.5% (v/v) or even below, since DMSO influences the fluorescent signal with higher concentrations (experimentally tested, data not shown; confirmed by (Urban et al., 2008). Therefore, GCase activity buffer+1% (v/v) DMSO was also used for dilutions (table 2.9). The plate reader SpectraMax i3 (Molecular Devices) including the analysis software SoftMax Pro 6.4 was used for all activity measurements within this work. The program settings were kept the same for all activity runs: kinetic run, measurement temperature: 37° C., PMT Gain: high; flashes per read: 6; read height: 0.73305 mm from plate.
A pH optimum screening was done to observe a possible shift in the pH spectrum of the new variants due to structural modification of the enzymes. Therefore, three different buffers were used, covering a pH range of pH 3.5 to 8. For the screening, buffer substances were chosen after the use for purification buffers. Therefore, following buffers were prepared: Citric acid buffer (20 mM, pH 3.5-5), MES buffer (20 mM, pH 6-6.5) and HEPES buffer (20 mM, pH 7-8). The final protein concentration used for this assay was 75 nM. The activity assay was done as described in section 2.3.5 (table 2.11), merely the buffer was varied.
A possible pH optimum shift due to structural modifications should be examined. Since the GCase enzyme originally occurs within the lysosome, its natural pH optimum is reported to be between pH 4.7-6.0 (Lieberman et al., 2007; Liou et al., 2006; Tan et al., 2014). This could change when including slight modifications in the structure of the molecule. Thus, the mutants were tested within a pH range of 3.5 to 8 for enzymatic activity.

hGCase = experiment: Inhibition of hGCase using isofagomine (IFG), IC50 determination; assay type: biochemical, human; details: reversible inhibitor isofagomine on the named hGCase variant; 25 nM protein, 10 min pre-incubation at RT, 20 μM res-β-glc
Description: IFG is a competitive, reversible inhibitor of hGCase, interacting with the active pocket of the enzyme (Powe et al., 2006).
To calculate the IC50, a concentration range of 0.002-100 μM IFG was tested. IFG was prepared with a stock concentration of 1 mM in DMSO. The final enzyme concentration was 25 nM. After adding the inhibitor to the enzyme, the solution was pre-incubated for 10 min at RT before adding the substrate (20 μM) for the activity measurement.
The evaluation and IC50 determination were done using GraphPad Prism7. hGCase activity with no inhibitor added was set to 100% relative enzyme activity. In case of evaluating the raw data via GraphPadPrism7, the applied inhibitor concentrations were first transformed to log 10×-values plottet on the x-axis. Further, the raw data measured with the activity assay in RFU was normalized to the highest activity value within one data set (equals 100%). 100% signal was defined as 10-12 μM IFG (=no inhibitor added). Data points were fitted and IC50 values were determined using log(inhibitor) vs. response-variable slope (four parameters) (GraphPadPrism7) following equation 9: […]
To determine whether the active binding site of an enzyme is compromised or altered, IC50 values were calculated for active site inhibitor and compared. In this work, the natural occurring GCase inhibitor isofagomine (IFG) and conditurol-β-epoxide (CBE) were used. IFG is known as a reversible inhibitor, interacting with the active site of the GCase enzyme, whereas CBE is an irreversible inhibitor of GCase (Powe et al., 2006). The IC50 of an enzyme is defined as the concentration of an inhibitor, where the response, in this case the enzyme activity, is reduced by half (Kalliokoski et al., 2013). Both assays were conducted as described in section 2.5.6. The inhibitor profiles of M53T/P55T using IFG and CBE as well as the IC50 profiles of all residual mutants combined are shown in FIG. 4.
The raw data was plotted by transforming the applied IFG/CBE concentration to a logarithmic scale (x-axis, FIG. 4) and by normalizing the activity signal with highest signal of each data set to 100% (defined with apparent inhibitor concentration of 10-12 μM, equal to no inhibitor). IC50 values were calculated using GraphPad Prism7 following equation 9.

IC50 (hGCase) | shape of pH spectrum [2] | Molecule | unfolding temperature Tm [1] | relative activity [2] [%]
17 nM | – | R495HS2: hGCase based on the Cerezyme sequence (R495H) but produced in S2 cells, His8-tagged; Seq. Id. No. 1 (protein, listed as Homo sapiens, His8 tag) ARPCIPKSFGYSSVVCVCNATYCDSFDPPTFPALGTFSRYESTRSGRRMELSMGPIQANHTGTGLLLTLQPEQKFQKVKGFGGAMTDAAALNILALSPPAQNLLLKSYFSEEGIGYNIIRVPMASCDFSIRTYTYADTPDDFQLHNFSLPEEDTKLKIPLIHRALQLAQRPVSLLASPWTSPTWLKTNGAVNGKGSLKGQPGDIYHQTWARYFVKFLDAYAEHKLQFWAVTAENEPSAGLLSGYPFQCLGFTPEHQRDFIARDLGPTLANSTHHNVRLLMLDDQRLLLPHWAKVVLTDPEAAKYVHGIAVHWYLDFLAPAKATLGETHRLFPNTMLFASEACVGSKFWEQSVRLGSWDRGMQYSHSIITNLLYHVVGWTDWNLALNPEGGPNWVRNFVDSPIIVDITKDTFYKQPMFYHLGHFSKFIPEGSQRVGLVASQKNDLDAVALMHPDGSAVVVVLNRSSKDVPLTIKDPAVGFLETISPGYSIHTYLWHRQ | 54.6 °C and 54.6 ± 0.0 °C | 80
~40 nM and 40 nM | more bell-shaped pH spectrum | M53T/P55T: recombinant human β-glucocerebrosidase variant R495H/M53T/P55T, S2 cells; Seq. Id. No. 7 (protein, listed as Homo sapiens, recombinant human β-glucocerebrosidase variant R495H/M53T/P55T, S2 cells; Id; No. 7) ARPCIPKSFGYSSVVCVCNATYCDSFDPPTFPALGTFSRYESTRSGRRMELSTGTIQANHTGTGLLLTLQPEQKFQKVKGFGGAMTDAAALNILALSPPAQNLLLKSYFSEEGIGYNIIRVPMASCDFSIRTYTYADTPDDFQLHNFSLPEEDTKLKIPLIHRALQLAQRPVSLLASPWTSPTWLKTNGAVNGKGSLKGQPGDIYHQTWARYFVKFLDAYAEHKLQFWAVTAENEPSAGLLSGYPFQCLGFTPEHQRDFIARDLGPTLANSTHHNVRLLMLDDQRLLLPHWAKVVLTDPEAAKYVHGIAVHWYLDFLAPAKATLGETHRLFPNTMLFASEACVGSKFWEQSVRLGSWDRGMQYSHSIITNLLYHVVGWTDWNLALNPEGGPNWVRNFVDSPIIVDITKDTFYKQPMFYHLGHFSKFIPEGSQRVGLVASQKNDLDAVALMHPDGSAVVVVLNRSSKDVPLTIKDPAVGFLETISPGYSIHTYLWHRQ | 55.3 ± 0.1 °C | 80
35 ± 11 nM | more bell-shaped pH spectrum | K321N/H145L: Amicus double mutant hGCase R495H/K321N/H145L produced in S2 cells; Seq. Id. No. 3 (protein, listed as Homo sapiens, Amicus double mutant hGCase R495H/K321N/H145L produced in S2 cells; Id; No. 3) ARPCIPKSFGYSSVVCVCNATYCDSFDPPTFPALGTFSRYESTRSGRRMELSMGPIQANHTGTGLLLTLQPEQKFQKVKGFGGAMTDAAALNILALSPPAQNLLLKSYFSEEGIGYNIIRVPMASCDFSIRTYTYADTPDDFQLLNFSLPEEDTKLKIPLIHRALQLAQRPVSLLASPWTSPTWLKTNGAVNGKGSLKGQPGDIYHQTWARYFVKFLDAYAEHKLQFWAVTAENEPSAGLLSGYPFQCLGFTPEHQRDFIARDLGPTLANSTHHNVRLLMLDDQRLLLPHWAKVVLTDPEAAKYVHGIAVHWYLDFLAPANATLGETHRLFPNTMLFASEACVGSKFWEQSVRLGSWDRGMQYSHSIITNLLYHVVGWTDWNLALNPEGGPNWVRNFVDSPIIVDITKDTFYKQPMFYHLGHFSKFIPEGSQRVGLVASQKNDLDAVALMHPDGSAVVVVLNRSSKDVPLTIKDPAVGFLETISPGYSIHTYLWHRQ | 57.3 ± 0.0 °C | –
28 ± 3 nM | – | K321N: Amicus single mutant hGCase R495H/K321N produced in S2 cells; Seq. Id. No. 2 (protein, listed as Homo sapiens, Amicus single mutant hGCase R495H/K321N produced in S2 cells; Id; No. 2) ARPCIPKSFGYSSVVCVCNATYCDSFDPPTFPALGTFSRYESTRSGRRMELSMGPIQANHTGTGLLLTLQPEQKFQKVKGFGGAMTDAAALNILALSPPAQNLLLKSYFSEEGIGYNIIRVPMASCDFSIRTYTYADTPDDFQLHNFSLPEEDTKLKIPLIHRALQLAQRPVSLLASPWTSPTWLKTNGAVNGKGSLKGQPGDIYHQTWARYFVKFLDAYAEHKLQFWAVTAENEPSAGLLSGYPFQCLGFTPEHQRDFIARDLGPTLANSTHHNVRLLMLDDQRLLLPHWAKVVLTDPEAAKYVHGIAVHWYLDFLAPANATLGETHRLFPNTMLFASEACVGSKFWEQSVRLGSWDRGMQYSHSIITNLLYHVVGWTDWNLALNPEGGPNWVRNFVDSPIIVDITKDTFYKQPMFYHLGHFSKFIPEGSQRVGLVASQKNDLDAVALMHPDGSAVVVVLNRSSKDVPLTIKDPAVGFLETISPGYSIHTYLWHRQ | 56.2 ± 0.1 °C | –

Reference: patent US20220325265A1, “GLUCOCEREBROSIDASE MUTANTS” (Hoffmann-la Roche Inc., priority 2019, published 2022)
